Data published in the Human Domainome abundance scans (Beltran et al. 2025).
± gives the uncertainty stated by the source.

B1: Gamma-crystallin C, residues 91 to 170; numbered along this chain, P07315 (parent)
chain: RLYEREDHKGLMMELSEDCPSIQDRFHLSEIRSLHVLEGCWVLYELPNYRGRQYLLRPQEYRRCQDWGAMDAKAGSLRRV

Variants of: B1
Assay: abundance fitness (aPCA) (normalised: wild type 0, dead -1); higher = more abundant; growth selection in yeast, the domain comes from the species named
Conditions: Homo sapiens

Row | Variant | abundance fitness
1 | S21M | -0.914 ± 0.29
2 | S21P | -0.602 ± 0.23
3 | S21W | -0.904 ± 0.16
4 | S21D | -0.07 ± 0.14
5 | S21V | -0.56 ± 0.057
6 | S21C | -0.089 ± 0.086
7 | S21L | -0.761 ± 0.1
8 | S21N | 0.053 ± 0.2
9 | S21A | -0.467 ± 0.094
10 | S21R | -0.454 ± 0.052
11 | M12K | -0.464 ± 0.18
12 | M12G | -0.286 ± 0.059
13 | M12W | -0.17 ± 0.1
14 | M12S | -0.172 ± 0.068
15 | M12F | -0.342 ± 0.088
16 | M12I | -0.242 ± 0.11
17 | M12H | -0.483 ± 0.12
18 | M12T | -0.464 ± 0.15
19 | M12R | -0.32 ± 0.062
20 | M12Q | -0.636 ± 0.37
21 | M12C | -0.288 ± 0.11
22 | M12N | -0.11 ± 0.15
23 | M12V | -0.096 ± 0.052
24 | M12L | -0.238 ± 0.045

Row | Variant | abundance fitness
25 | M12P | -0.038 ± 0.1
26 | M12Y | -0.063 ± 0.25
27 | M12A | -0.127 ± 0.05
28 | M12D | -0.863 ± 0.17
29 | L15V | 0.037 ± 0.057
30 | L15A | -0.477 ± 0.1
31 | L15F | -0.134 ± 0.18
32 | L15C | -0.09 ± 0.081
33 | L15G | -1.03 ± 0.23
34 | L15E | -0.89 ± 0.26
35 | L15T | -0.389 ± 0.14
36 | L15N | -0.6 ± 0.34
37 | L15D | -0.736 ± 0.33
38 | L15S | -0.832 ± 0.099
39 | L15M | -0.431 ± 0.18
40 | S29W | -0.113 ± 0.056
41 | S29N | -0.003 ± 0.13
42 | S29L | -0.165 ± 0.057
43 | S29K | -0.013 ± 0.13
44 | S29R | -0.043 ± 0.04
45 | S29H | -0.064 ± 0.23
46 | S29G | -0.118 ± 0.069
47 | S29T | -0.012 ± 0.089
48 | S29V | -0.328 ± 0.094

Row | Variant | abundance fitness
49 | S29C | -0.237 ± 0.082
50 | S29M | -0.408 ± 0.16
51 | S29E | -0.112 ± 0.097
52 | S29P | -0.199 ± 0.084
53 | S29I | -0.408 ± 0.19
54 | S29D | -0.073 ± 0.15
55 | S29Q | -0.086 ± 0.085
56 | S29F | -0.318 ± 0.11
57 | S29Y | -0.132 ± 0.085
58 | S29A | -0.161 ± 0.076
59 | E14I | -0.265 ± 0.17
60 | E14T | -0.169 ± 0.091
61 | E14G | -0.524 ± 0.11
62 | E14Q | -0.227 ± 0.082
63 | E14R | -0.397 ± 0.092
64 | E14V | -0.227 ± 0.086
65 | E14S | -0.25 ± 0.06
66 | E14C | -0.565 ± 0.21
67 | E14Y | -0.04 ± 0.17
68 | E14D | -0.485 ± 0.097
69 | E14K | -0.095 ± 0.15
70 | E14A | -0.15 ± 0.08
71 | E14P | -0.269 ± 0.074
72 | I22L | -0.084 ± 0.059

Row | Variant | abundance fitness
73 | I22A | -0.784 ± 0.3
74 | I22D | -0.89 ± 0.42
75 | I22R | -0.771 ± 0.17
76 | I22P | -0.978 ± 0.41
77 | I22C | -0.61 ± 0.27
78 | I22F | -0.47 ± 0.31
79 | I22T | -0.649 ± 0.2
80 | I22V | -0.149 ± 0.07
81 | I22M | -0.562 ± 0.13
82 | I22G | -0.921 ± 0.15
83 | I22S | -0.975 ± 0.35
84 | I22Y | -0.6 ± 0.34
85 | I22W | -0.801 ± 0.17
86 | R32G | 0.082 ± 0.061
87 | R32P | -0.146 ± 0.087
88 | R32E | -0.478 ± 0.18
89 | R32I | -0.587 ± 0.35
90 | R32N | -0.146 ± 0.1
91 | R32Q | -0.279 ± 0.089
92 | R32D | -0.89 ± 0.42
93 | R32C | -0.178 ± 0.1
94 | R32L | -0.359 ± 0.088
95 | R32K | -0.018 ± 0.1
96 | R32A | -0.302 ± 0.071

Row | Variant | abundance fitness
97 | R32S | -0.466 ± 0.08
98 | R32M | -0.412 ± 0.23
99 | R32H | 0.009 ± 0.22
100 | R32F | -0.683 ± 0.23
101 | P20G | -0.394 ± 0.054
102 | P20H | 0.061 ± 0.44
103 | P20I | -0.506 ± 0.23
104 | P20A | -0.025 ± 0.065
105 | P20T | -0.43 ± 0.17
106 | P20S | -0.292 ± 0.07
107 | P20L | -0.613 ± 0.091
108 | P20Y | -0.996 ± 0.4
109 | P20V | -0.345 ± 0.06
110 | P20W | -0.503 ± 0.08
111 | P20E | -0.11 ± 0.12
112 | P20M | -0.684 ± 0.39
113 | P20D | -0.24 ± 0.19
114 | P20N | -0.152 ± 0.22
115 | P20C | -0.253 ± 0.072
116 | P20Q | -0.442 ± 0.19
117 | P20R | -0.44 ± 0.069
118 | Q23M | -0.033 ± 0.075
119 | Q23R | -0.128 ± 0.047
120 | Q23P | -0.127 ± 0.089

Row | Variant | abundance fitness
121 | Q23I | 0.007 ± 0.17
122 | Q23E | 0 ± 0.069
123 | Q23W | 0.003 ± 0.056
124 | Q23D | -0.276 ± 0.12
125 | Q23C | -0.187 ± 0.09
126 | Q23F | -0.093 ± 0.23
127 | Q23K | -0.043 ± 0.092
128 | Q23L | -0.076 ± 0.044
129 | Q23H | -0.122 ± 0.13
130 | Q23A | -0.044 ± 0.041
131 | Q23V | -0.053 ± 0.045
132 | Q23G | -0.124 ± 0.045
133 | Q23Y | -0.17 ± 0.14
134 | Q23S | -0.145 ± 0.078
135 | Q23N | -0.016 ± 0.14
136 | F26I | -0.553 ± 0.41
137 | F26V | -0.461 ± 0.058
138 | F26T | -0.217 ± 0.12
139 | F26A | -0.564 ± 0.084
140 | F26K | -0.818 ± 0.31
141 | F26E | -0.923 ± 0.29
142 | F26S | -0.69 ± 0.12
143 | F26M | -0.049 ± 0.1
144 | F26W | -0.007 ± 0.081

Row | Variant | abundance fitness
145 | F26L | -0.343 ± 0.066
146 | F26C | -0.317 ± 0.17
147 | F26R | -0.886 ± 0.22
148 | F26Q | -0.787 ± 0.17
149 | F26G | -0.406 ± 0.064
150 | F26Y | -0.461 ± 0.25
151 | E30K | -0.13 ± 0.065
152 | E30D | -0.424 ± 0.11
153 | E30R | -0.184 ± 0.037
154 | E30C | -0.117 ± 0.054
155 | E30N | -0.116 ± 0.13
156 | E30H | 0.019 ± 0.098
157 | E30G | -0.273 ± 0.048
158 | E30Y | -0.145 ± 0.1
159 | E30P | -1.17 ± 0.34
160 | E30L | -0.368 ± 0.043
161 | E30V | -0.275 ± 0.037
162 | E30T | -0.186 ± 0.055
163 | E30I | -0.458 ± 0.1
164 | E30W | -0.455 ± 0.052
165 | E30S | -0.222 ± 0.048
166 | E30A | -0.133 ± 0.049
167 | E30F | -0.234 ± 0.099
